From publication doi:10.1101/2022.04.14.488403 (bioRxiv, 2022)

Key:
K5:I-E^k = test: biomembrane force probe
mouse CD3γε ECD = mouse CD3γε ECD (Mus musculus (Mouse)., UniProt P11942;P22646, biotin (BirA) on the C-terminal biotinylation sequence); test: micropipette adhesion frequency
human CD3γε ECD = human CD3γε ECD (human, UniProt P09693;P07766, biotin (BirA) on the C-terminal biotinylation sequence); test: biomembrane force probe
Chain of human CD3γε ECD (P09693 23-116, one chain of several): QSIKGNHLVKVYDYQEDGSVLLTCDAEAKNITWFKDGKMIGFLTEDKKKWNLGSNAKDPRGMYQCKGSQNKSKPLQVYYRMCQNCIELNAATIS

Chain of mouse CD3γε ECD (P11942 23-116, chain 1 of 2): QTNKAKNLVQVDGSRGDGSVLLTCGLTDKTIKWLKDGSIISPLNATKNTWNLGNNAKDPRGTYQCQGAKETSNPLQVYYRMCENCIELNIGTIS
Chain of mouse CD3γε ECD (P22646 23-108, chain 2 of 2): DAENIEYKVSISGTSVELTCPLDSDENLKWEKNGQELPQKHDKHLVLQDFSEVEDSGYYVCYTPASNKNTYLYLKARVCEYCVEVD

2B4 TCR, wild type, fully assembled on the surface of T hybridoma cells (from UniProt P01849 1-136)
peak bond lifetime (at 15 pN) (K5:I-E^k): 1.6 s

B1: 2C11 full-length mAb (anti-CD3ε, clone 145-2C11) (antibody, V domains shown)
VH: EVQLVESGGGLVQPGKSLKLSCEASGFTFSGYGMHWVRQAPGRGLESVAYITSSSINIKYADAVKGRFTVSRDNAKNLLFLQMNILKSEDTAMYYCARFDWDKNYWGQGTMVTVSS
VL: DIQMTQSPSSLPASLGDRVTINCQASQDISNYLNWYQQKPGKAPKLLIYYTNKLADGVPSRFSGSGSGRDSSFTISSLESEDIGSYYCQQYYNYPWTFGPGTKLEIK
binding result (mouse CD3γε ECD): binds

B2: human CD3δε ECD (complex)
chain 1: FKIPIEELEDRVFVNCNTSITWVEGTVGTLLSDITRLDLGKRILDPRGIYRCNGTDIYKDKESTVQVHYRMCQSCVELDPATVA
chain 2: DGNEEMGGITQTPYKVSISGTTVILTCPQYPGSEILWQHNDKNIGGDEDDKNIGSDEDHLSLKEFSELEQSGYYVCYPRGSKPEDANFYLYLRARVCENCMEMD
modifications: biotin (BirA) on the C-terminal biotinylation sequence
binding result (human CD3γε ECD): binds
